Laboratory results taken from article PMC11299580, “Discovery of novel disease-causing mutation in SSBP1 and its correction using adenine base editor to improve mitochondrial function” (Molecular Therapy. Nucleic Acids, 2023).

T1: SSBP1 wild-type (Homo sapiens, UniProt Q04837 17-148)
T1 sequence: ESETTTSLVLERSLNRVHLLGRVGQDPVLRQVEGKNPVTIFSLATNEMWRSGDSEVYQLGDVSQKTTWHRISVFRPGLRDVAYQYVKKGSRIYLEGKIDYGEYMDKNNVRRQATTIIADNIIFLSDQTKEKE


Legend:
[1] = target: the molecule itself; assay: cross-linking; glutaraldehyde cross-linking of recombinant SSBP1 proteins, SDS-PAGE with Coomassie staining and SSBP1 immunoblot, band intensities quantified with ImageJ (n = 3)
[2] = target: T1, SSBP1 wild-type; assay: EMSA; probe 0.25 uM (far above Kd); legend gives protein 0-2 nM, main text figure 1 uM; units doubtful; 50 mM Tris pH 7.5, 150 mM NaCl, 10% glycerol, 30 min at room temperature; 2% agarose gel in 1x TBE; conditions: protein: recombinant; tags: IMAC tag (probably His); chain copies: 4

Binder | binding result [1] | Kd [2] [nM]
single-stranded DNA-binding protein 1 (SSBP1), wild-type recombinant protein (natural protein, human, UniProt Q04837 17-148, looked up, A human SSBP1 cDNA clone (Origene RC215106) is named only for expression in mammalian cells; also called wild-type SSBP1; source: E. coli BL21 (DE3), purified (HiTrap IMAC, dialysis, Superdex 200 SEC)) ESETTTSLVLERSLNRVHLLGRVGQDPVLRQVEGKNPVTIFSLATNEMWRSGDSEVYQLGDVSQKTTWHRISVFRPGLRDVAYQYVKKGSRIYLEGKIDYGEYMDKNNVRRQATTIIADNIIFLSDQTKEKE | binds | 
GGACTATTTATTCAATATATTTAAGAACTAATTCCAGCTGAGCGCCGG (ssDNA) [EMSA ssDNA probe] |  | 11.2 ± 0.89
